The source of these data is article PMC6273323 (2016).

Non-standard residues stand in square brackets, D forms with d. No end group written: not given here. Phe(4-F) = N[C@@H](Cc1ccc(F)cc1)C(=O)O

The target of the experiment is T1, DF*NNN fluorinated iNOS peptide.
T1 chain: D[Phe(4-F)]NNN
Kind of experiment: SPR. In general terms: In SPR one partner is held on a chip, and binding of the other changes the refractive index at the surface.

B1: SPSB2 (protein)
chain: MGQTALARGSSSTPTSQALYSDFSPPEGLEELLSAPPPDLVAQRHHGWNPKDCSENIDVKEGGLCFERRPVAQSTDGVRGKRGYSRGLHAWEISWPLEQRGTHAVVGVATALAPLQADHYAALLGSNSESWGWDIGRGKLYHQSKGLEAPQYPAGPQGEQLVVPERLLVVLDMEEGTLGYSIGGTYLGPAFRGLKGRTLYPSVSAVWGQCQVRIRYMGERRVEEPQSLLHLSRLCVRHALGDTRLGQISTLPLPPAMKRYLLYK
The term Kd denotes the free concentration of one partner at which half of the binding sites on the other are occupied at equilibrium, for simple one-to-one binding. High values mean a looser complex, low ones a tighter complex. B1 showed an equilibrium dissociation constant (Kd) of 3000 nM.
